Data as given in patent publication US20140087995A1 (published 2014).
Numbered stars: 1 amine (or outer) side, 2 acyl side, 3 side chain; on linkers, the order of the positions; unused ones are H or OH. Bridge positions count the residues as written; N and C are the ends. Side chains are listed from the residue outwards. Ends that are not written are not given here. * marks the point of attachment. C20 diacid = O=C(O)CCCCCCCCCCCCCCCCCCC(=O)*; γGlu = O=C(O)[C@H](CCC(=O)[*:2])N[*:1]; AEEA = NCCOCCOCC(=O)O

T1: human amylin receptor (amylin 3(a) receptor: human calcitonin receptor with RAMP-3) (human, UniProt P30988 25-474; O60896 24-148)
T1 construct: whole, on cells; also called hAmylin-R; hAmylinR
T1 sequence (looked up) 1: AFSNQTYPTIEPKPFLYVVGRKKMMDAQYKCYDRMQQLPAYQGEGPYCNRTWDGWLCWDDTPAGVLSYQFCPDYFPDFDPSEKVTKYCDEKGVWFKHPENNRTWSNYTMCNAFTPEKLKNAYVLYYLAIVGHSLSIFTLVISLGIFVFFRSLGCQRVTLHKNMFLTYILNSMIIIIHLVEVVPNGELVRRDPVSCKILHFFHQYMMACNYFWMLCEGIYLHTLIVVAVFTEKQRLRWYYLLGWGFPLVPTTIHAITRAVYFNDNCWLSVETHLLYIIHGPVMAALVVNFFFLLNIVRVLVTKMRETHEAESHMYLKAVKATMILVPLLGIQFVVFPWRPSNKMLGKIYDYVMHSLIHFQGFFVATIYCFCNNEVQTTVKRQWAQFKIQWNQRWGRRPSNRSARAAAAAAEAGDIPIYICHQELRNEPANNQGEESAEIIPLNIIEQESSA
T1 sequence (looked up) 2: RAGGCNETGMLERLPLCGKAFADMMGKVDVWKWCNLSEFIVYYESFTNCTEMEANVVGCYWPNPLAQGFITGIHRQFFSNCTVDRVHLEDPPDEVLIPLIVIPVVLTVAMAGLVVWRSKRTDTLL

B1: N^ε21-[(4S)-4-carboxy-4-[[(4S)-4-carboxy-4-(19-carboxynonadecanoylamino)butanoyl]amino]butanoyl]-[Asp14,Arg17,Lys21,Pro27,Asp35]-h-amylin (peptide)
peptide: KCNTATCATQRLADFLRHSSK([γGlu-γGlu-C20 diacid])NFGAIPSSTNVGSDTY-NH2
modifications: disulfide 2-7; N-terminus assumed
SMILES: CC[C@H](C)[C@H](NC(=O)[C@H](C)NC(=O)CNC(=O)[C@H](Cc1ccccc1)NC(=O)[C@H](CC(N)=O)NC(=O)[C@H](CCCCNC(=O)CC[C@H](NC(=O)CC[C@H](NC(=O)CCCCCCCCCCCCCCCCCCC(=O)O)C(=O)O)C(=O)O)NC(=O)[C@H](CO)NC(=O)[C@H](CO)NC(=O)[C@H](Cc1c[nH]cn1)NC(=O)[C@H](CCCNC(=N)N)NC(=O)[C@H](CC(C)C)NC(=O)[C@H](Cc1ccccc1)NC(=O)[C@H](CC(=O)O)NC(=O)[C@H](C)NC(=O)[C@H](CC(C)C)NC(=O)[C@H](CCCNC(=N)N)NC(=O)[C@H](CCC(N)=O)NC(=O)[C@@H](NC(=O)[C@H](C)NC(=O)[C@@H]1CSSC[C@H](NC(=O)[C@@H](N)CCCCN)C(=O)N[C@@H](CC(N)=O)C(=O)N[C@@H]([C@@H](C)O)C(=O)N[C@@H](C)C(=O)N[C@@H]([C@@H](C)O)C(=O)N1)[C@@H](C)O)C(=O)N1CCC[C@H]1C(=O)N[C@@H](CO)C(=O)N[C@@H](CO)C(=O)N[C@H](C(=O)N[C@@H](CC(N)=O)C(=O)N[C@H](C(=O)NCC(=O)N[C@@H](CO)C(=O)N[C@@H](CC(=O)O)C(=O)N[C@H](C(=O)N[C@@H](Cc1ccc(O)cc1)C(N)=O)[C@@H](C)O)C(C)C)[C@@H](C)O
notes: also called 59; compound 59
B2: N{Alpha-1}-[(4S)-4-carboxy-4-(19-carboxynonadecanoylamino)butanoyl]-[Glu14,Arg17,Pro21,Pro27,Lys34]-h-amylin (peptide)
peptide: {C20 diacid-γGlu}-KCNTATCATQRLAEFLRHSSPNFGAIPSSTNVGKNTY-NH2
modifications: disulfide 2-7
SMILES: CC[C@H](C)[C@H](NC(=O)[C@H](C)NC(=O)CNC(=O)[C@H](Cc1ccccc1)NC(=O)[C@H](CC(N)=O)NC(=O)[C@@H]1CCCN1C(=O)[C@H](CO)NC(=O)[C@H](CO)NC(=O)[C@H](Cc1c[nH]cn1)NC(=O)[C@H](CCCNC(=N)N)NC(=O)[C@H](CC(C)C)NC(=O)[C@H](Cc1ccccc1)NC(=O)[C@H](CCC(=O)O)NC(=O)[C@H](C)NC(=O)[C@H](CC(C)C)NC(=O)[C@H](CCCNC(=N)N)NC(=O)[C@H](CCC(N)=O)NC(=O)[C@@H](NC(=O)[C@H](C)NC(=O)[C@@H]1CSSC[C@H](NC(=O)[C@H](CCCCN)NC(=O)CC[C@H](NC(=O)CCCCCCCCCCCCCCCCCCC(=O)O)C(=O)O)C(=O)N[C@@H](CC(N)=O)C(=O)N[C@@H]([C@@H](C)O)C(=O)N[C@@H](C)C(=O)N[C@@H]([C@@H](C)O)C(=O)N1)[C@@H](C)O)C(=O)N1CCC[C@H]1C(=O)N[C@@H](CO)C(=O)N[C@@H](CO)C(=O)N[C@H](C(=O)N[C@@H](CC(N)=O)C(=O)N[C@H](C(=O)NCC(=O)N[C@@H](CCCCN)C(=O)N[C@@H](CC(N)=O)C(=O)N[C@H](C(=O)N[C@@H](Cc1ccc(O)cc1)C(N)=O)[C@@H](C)O)C(C)C)[C@@H](C)O
notes: also called 36; compound 36
B3: N^ε1-[2-[2-[2-[[(4S)-4-carboxy-4-(19-carboxynonadecanoylamino)butanoyl]amino]ethoxy]ethoxy]acetyl]-[Arg17,Pro21,Pro27]-h-amylin (peptide)
peptide: K([AEEA-γGlu-C20 diacid])CNTATCATQRLANFLRHSSPNFGAIPSSTNVGSNTY-NH2
modifications: disulfide 2-7; N-terminus assumed
SMILES: CC[C@H](C)[C@H](NC(=O)[C@H](C)NC(=O)CNC(=O)[C@H](Cc1ccccc1)NC(=O)[C@H](CC(N)=O)NC(=O)[C@@H]1CCCN1C(=O)[C@H](CO)NC(=O)[C@H](CO)NC(=O)[C@H](Cc1c[nH]cn1)NC(=O)[C@H](CCCNC(=N)N)NC(=O)[C@H](CC(C)C)NC(=O)[C@H](Cc1ccccc1)NC(=O)[C@H](CC(N)=O)NC(=O)[C@H](C)NC(=O)[C@H](CC(C)C)NC(=O)[C@H](CCCNC(=N)N)NC(=O)[C@H](CCC(N)=O)NC(=O)[C@@H](NC(=O)[C@H](C)NC(=O)[C@@H]1CSSC[C@H](NC(=O)[C@@H](N)CCCCNC(=O)COCCOCCNC(=O)CC[C@H](NC(=O)CCCCCCCCCCCCCCCCCCC(=O)O)C(=O)O)C(=O)N[C@@H](CC(N)=O)C(=O)N[C@@H]([C@@H](C)O)C(=O)N[C@@H](C)C(=O)N[C@@H]([C@@H](C)O)C(=O)N1)[C@@H](C)O)C(=O)N1CCC[C@H]1C(=O)N[C@@H](CO)C(=O)N[C@@H](CO)C(=O)N[C@H](C(=O)N[C@@H](CC(N)=O)C(=O)N[C@H](C(=O)NCC(=O)N[C@@H](CO)C(=O)N[C@@H](CC(N)=O)C(=O)N[C@H](C(=O)N[C@@H](Cc1ccc(O)cc1)C(N)=O)[C@@H](C)O)C(C)C)[C@@H](C)O
notes: also called 41; compound 41
B4: N^ε1-[2-[2-[2-(19-carboxynonadecanoylamino)ethoxy]ethoxy]acetyl]-[Arg17,Pro21,Pro27]-h-amylin (peptide)
peptide: K([AEEA-C20 diacid])CNTATCATQRLANFLRHSSPNFGAIPSSTNVGSNTY-NH2
modifications: disulfide 2-7; N-terminus assumed
SMILES: CC[C@H](C)[C@H](NC(=O)[C@H](C)NC(=O)CNC(=O)[C@H](Cc1ccccc1)NC(=O)[C@H](CC(N)=O)NC(=O)[C@@H]1CCCN1C(=O)[C@H](CO)NC(=O)[C@H](CO)NC(=O)[C@H](Cc1c[nH]cn1)NC(=O)[C@H](CCCNC(=N)N)NC(=O)[C@H](CC(C)C)NC(=O)[C@H](Cc1ccccc1)NC(=O)[C@H](CC(N)=O)NC(=O)[C@H](C)NC(=O)[C@H](CC(C)C)NC(=O)[C@H](CCCNC(=N)N)NC(=O)[C@H](CCC(N)=O)NC(=O)[C@@H](NC(=O)[C@H](C)NC(=O)[C@@H]1CSSC[C@H](NC(=O)[C@@H](N)CCCCNC(=O)COCCOCCNC(=O)CCCCCCCCCCCCCCCCCCC(=O)O)C(=O)N[C@@H](CC(N)=O)C(=O)N[C@@H]([C@@H](C)O)C(=O)N[C@@H](C)C(=O)N[C@@H]([C@@H](C)O)C(=O)N1)[C@@H](C)O)C(=O)N1CCC[C@H]1C(=O)N[C@@H](CO)C(=O)N[C@@H](CO)C(=O)N[C@H](C(=O)N[C@@H](CC(N)=O)C(=O)N[C@H](C(=O)NCC(=O)N[C@@H](CO)C(=O)N[C@@H](CC(N)=O)C(=O)N[C@H](C(=O)N[C@@H](Cc1ccc(O)cc1)C(N)=O)[C@@H](C)O)C(C)C)[C@@H](C)O
notes: also called 43; compound 43
B5: N^ε-[(4S)-4-carboxy-4-(19-carboxynonadecanoylamino)butanoyl]Lys[Arg1,Arg17,Pro21,Pro27,His35]-h-amylin (peptide)
peptide: K([γGlu-C20 diacid])RCNTATCATQRLANFLRHSSPNFGAIPSSTNVGSHTY-NH2
modifications: disulfide 3-8; N-terminus assumed
SMILES: CC[C@H](C)[C@H](NC(=O)[C@H](C)NC(=O)CNC(=O)[C@H](Cc1ccccc1)NC(=O)[C@H](CC(N)=O)NC(=O)[C@@H]1CCCN1C(=O)[C@H](CO)NC(=O)[C@H](CO)NC(=O)[C@H](Cc1c[nH]cn1)NC(=O)[C@H](CCCNC(=N)N)NC(=O)[C@H](CC(C)C)NC(=O)[C@H](Cc1ccccc1)NC(=O)[C@H](CC(N)=O)NC(=O)[C@H](C)NC(=O)[C@H](CC(C)C)NC(=O)[C@H](CCCNC(=N)N)NC(=O)[C@H](CCC(N)=O)NC(=O)[C@@H](NC(=O)[C@H](C)NC(=O)[C@@H]1CSSC[C@H](NC(=O)[C@H](CCCNC(=N)N)NC(=O)[C@@H](N)CCCCNC(=O)CC[C@H](NC(=O)CCCCCCCCCCCCCCCCCCC(=O)O)C(=O)O)C(=O)N[C@@H](CC(N)=O)C(=O)N[C@@H]([C@@H](C)O)C(=O)N[C@@H](C)C(=O)N[C@@H]([C@@H](C)O)C(=O)N1)[C@@H](C)O)C(=O)N1CCC[C@H]1C(=O)N[C@@H](CO)C(=O)N[C@@H](CO)C(=O)N[C@H](C(=O)N[C@@H](CC(N)=O)C(=O)N[C@H](C(=O)NCC(=O)N[C@@H](CO)C(=O)N[C@@H](Cc1c[nH]cn1)C(=O)N[C@H](C(=O)N[C@@H](Cc1ccc(O)cc1)C(N)=O)[C@@H](C)O)C(C)C)[C@@H](C)O
notes: also called 44; compound 44
B6: N^-1-[(4S)-4-carboxy-4-(19-carboxynonadecanoylamino)butanoyl]-Gly[Arg1,Arg17,Pro21,Pro27,His35]-h-amylin (peptide)
peptide: {C20 diacid-γGlu}-GRCNTATCATQRLANFLRHSSPNFGAIPSSTNVGSHTY-NH2
modifications: disulfide 3-8
SMILES: CC[C@H](C)[C@H](NC(=O)[C@H](C)NC(=O)CNC(=O)[C@H](Cc1ccccc1)NC(=O)[C@H](CC(N)=O)NC(=O)[C@@H]1CCCN1C(=O)[C@H](CO)NC(=O)[C@H](CO)NC(=O)[C@H](Cc1c[nH]cn1)NC(=O)[C@H](CCCNC(=N)N)NC(=O)[C@H](CC(C)C)NC(=O)[C@H](Cc1ccccc1)NC(=O)[C@H](CC(N)=O)NC(=O)[C@H](C)NC(=O)[C@H](CC(C)C)NC(=O)[C@H](CCCNC(=N)N)NC(=O)[C@H](CCC(N)=O)NC(=O)[C@@H](NC(=O)[C@H](C)NC(=O)[C@@H]1CSSC[C@H](NC(=O)[C@H](CCCNC(=N)N)NC(=O)CNC(=O)CC[C@H](NC(=O)CCCCCCCCCCCCCCCCCCC(=O)O)C(=O)O)C(=O)N[C@@H](CC(N)=O)C(=O)N[C@@H]([C@@H](C)O)C(=O)N[C@@H](C)C(=O)N[C@@H]([C@@H](C)O)C(=O)N1)[C@@H](C)O)C(=O)N1CCC[C@H]1C(=O)N[C@@H](CO)C(=O)N[C@@H](CO)C(=O)N[C@H](C(=O)N[C@@H](CC(N)=O)C(=O)N[C@H](C(=O)NCC(=O)N[C@@H](CO)C(=O)N[C@@H](Cc1c[nH]cn1)C(=O)N[C@H](C(=O)N[C@@H](Cc1ccc(O)cc1)C(N)=O)[C@@H](C)O)C(C)C)[C@@H](C)O
notes: also called 47; compound 47

Target: T1, human amylin receptor (amylin 3(a) …)
Assay: SPA displacement of 125I-rat amylin, hAmylin 3(a) receptor membranes
Procedure, shortened: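 Cell membranes were prepared by homogenisation in Na-HEPES/EDTA buffer, pH 7.4, and stored at −80° C. They were then coupled to SPA beads at 35 ng/μL final and exposed to compounds in assay buffer containing CaCl2, MgCl₂, OA and Tween20. After 120 min at 25° C, plates were counted and IC₅₀ derived.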

Point of comparison: B4, IC50 0.076 nM. Against it:
- B1 — 16-fold higher, 1.19 nM
- B2 — 5.3-fold higher, 0.403 nM
- B3 — 5.6-fold higher, 0.427 nM
- B5 — 3.6-fold higher, 0.275 nM
- B6 — 4.5-fold higher, 0.344 nM
